Data reported in publication doi:10.1101/2021.09.06.458672.

Target: plectasin variant D9S Q14K V36L (PPI42)
Test: dynamic light scattering

For “plectasin variant D9S Q14K V36L (PPI42) (peptide)”, the mass fraction of medium sized oligomers and protein fibrils was < 2.5 % mass.
